Reference: US20230357405A1

Molecular target: human PD-1 expressed on cells (CHO human PD-1 cells) (human) (UniProt Q15116)
Experiment: cell-based or functional assay

human PD-1 expressed on cells (CHO human PD-1 cells) (human), sequence (Q15116 21-288): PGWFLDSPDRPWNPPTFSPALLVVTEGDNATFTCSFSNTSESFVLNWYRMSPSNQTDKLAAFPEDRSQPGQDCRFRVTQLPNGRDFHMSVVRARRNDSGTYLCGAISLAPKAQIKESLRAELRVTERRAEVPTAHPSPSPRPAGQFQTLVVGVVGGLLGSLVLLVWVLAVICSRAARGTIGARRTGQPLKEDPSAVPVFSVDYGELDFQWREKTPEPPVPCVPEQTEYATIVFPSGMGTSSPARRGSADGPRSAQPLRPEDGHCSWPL

B1: 1.57-4GS-MSA binder (bispecific antibody, part only; not given: mouse serum albumin binding VH, part only)
chain, part: QVQLVESGGGLVKPGGSLRLSCAASGFTFSDNSMTWMRQAPGKGLEWVSYISSGGGVIFYADSVKGRFTISRDNAKNSLYLQMNSLRADDTAVYYCAREAPLRLGESPHDAFDISGQGTMVTVSSGGGGSGGGGSGGGGSGGGGS
EC50 (M); human PD-1 reporter gene assay: 1e-08 M
EC50 (M); reporter assay: 1e-08 M
